Source: paper PMC2198822 (The Journal of Cell Biology, 2001)

T1: formiminotransferase cyclodeaminase (FTCD), bacterially expressed and purified (rat, UniProt O88618 1-541)
T1 sequence (looked up): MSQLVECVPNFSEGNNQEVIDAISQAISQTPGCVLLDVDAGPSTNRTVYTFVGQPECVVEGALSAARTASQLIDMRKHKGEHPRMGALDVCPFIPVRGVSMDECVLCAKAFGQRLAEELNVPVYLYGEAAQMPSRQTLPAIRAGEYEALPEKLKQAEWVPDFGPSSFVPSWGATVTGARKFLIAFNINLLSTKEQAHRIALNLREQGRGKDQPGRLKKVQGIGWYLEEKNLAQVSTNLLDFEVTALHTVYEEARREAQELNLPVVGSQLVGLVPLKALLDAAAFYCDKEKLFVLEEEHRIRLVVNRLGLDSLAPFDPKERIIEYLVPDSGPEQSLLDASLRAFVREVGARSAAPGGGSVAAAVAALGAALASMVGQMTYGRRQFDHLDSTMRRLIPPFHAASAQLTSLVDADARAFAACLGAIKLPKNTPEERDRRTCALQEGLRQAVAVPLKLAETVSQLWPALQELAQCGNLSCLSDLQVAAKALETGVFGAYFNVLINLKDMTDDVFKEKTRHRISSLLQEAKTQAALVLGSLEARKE

B1: 35S-radiolabeled FTCD generated in vitro by coupled transcription/translation (enzyme, UniProt O88618 1-541, looked up)
chain: T1 sequence (looked up)
modifications: [35S]methionine and [35S]cysteine label
B2: recombinant mouse vimentin, bacterially expressed and purified (natural protein)
chain: not shown

Assays:
[1] = biological target: T1, formiminotransferase cyclodeaminase …; assay: far-Western, overlay or dot blot
[2] = biological target: B2; assay: far-Western, overlay or dot blot
[3] = biological target: T1, formiminotransferase cyclodeaminase …; assay: co-sedimentation

Binder | fold bound relative to BSA [1] [fold] | fold bound relative to BSA [2] [fold] | binding result [3]
B1 | ~6 | ~10 | –
B2 | – | – | binds
